From US6703362 (CYTOGEN, dated 2004)

T1: hPEPT1 receptor domain (human PEPT1, amino acid residues 391-571), His-tag fusion protein (human, UniProt P46059 391-571)
T1 construct: purified under denaturing conditions; also called recombinant hPEPT1; not shown: poly-histidine tag (pET vector) at the NH2-terminal end
T1 sequence: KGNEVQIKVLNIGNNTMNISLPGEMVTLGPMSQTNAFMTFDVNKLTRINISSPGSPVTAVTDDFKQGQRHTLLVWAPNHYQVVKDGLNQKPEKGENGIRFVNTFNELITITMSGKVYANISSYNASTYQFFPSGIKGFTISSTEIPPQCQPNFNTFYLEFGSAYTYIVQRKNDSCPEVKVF

T2: D2H receptor domain (human D2H transporter, amino acid residues 387-685), His-tag fusion protein (human, UniProt Q07837 387-685)
T2 construct: purified under denaturing conditions; also called recombinant D2H; not shown: poly-histidine tag (pET vector) at the NH2-terminal end
T2 sequence: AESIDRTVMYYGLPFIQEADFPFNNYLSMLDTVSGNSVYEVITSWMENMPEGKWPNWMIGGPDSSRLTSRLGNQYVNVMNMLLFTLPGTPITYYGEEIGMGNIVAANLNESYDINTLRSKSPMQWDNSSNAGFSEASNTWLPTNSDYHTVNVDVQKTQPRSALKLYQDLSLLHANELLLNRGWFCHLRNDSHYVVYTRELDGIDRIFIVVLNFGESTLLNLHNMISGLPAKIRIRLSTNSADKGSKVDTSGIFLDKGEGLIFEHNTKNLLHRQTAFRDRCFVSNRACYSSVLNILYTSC

B1: PAX15 (peptide)
peptide: SYCRVKGGGEGGHTDSNLARSGCGKVARTSRLQHINPRATPPSRAETVESCLAKPHTENSFTNVWKDDKTLDRYANYEGCLWNATGVVVCTGDETQCYGTWVPIGLAIPENEGGGSEGGGSEGGGSEGGGTKPPEYGDTPIPGYTYINPLDGTYPPGTEQNPANPNPSLEESQPLNTFMFQNNRFRNRQGALTVYTGTVTQGTDPVKTYYQYTPVSSKAMYDAYWNGKFRDCAFHSGFNEDPFVCEYQGQSSDLPQPPVNAGGGSGGGSGGGSEGGGSEGGGSEGGGSEGGGSGGGSGSGDFDYEKMANANKGAMTENADENALQSDAKGKLDSVATDYGAAIDGFIGDVSGLANGNGATGDFAGSNSQMAQVGDGDNSPLMNNFRQYLPSLPQSVECRPFVFSAGKPYEFSIDCDKINLFRGVFAFLLYVATFMYVFSTFANILRNKES
notes: Assayed as M13 phage clone displaying the insert
B2: PAX14 (peptide)
peptide: RTFENDGLGVGRSIQKKSDRWYASHNIRSHFASMSPAGKAETVESCLAKPHTENSFTNVWKDDKTLDRYANYEGCLWNATGVVVCTGDETQCYGTWVPIGLAIPENEGGGSEGGGSEGGGSEGGGTKPPEYGDTPIPGYTYINPLDGTYPPGTEQNPANPNPSLEESQPLNTFMFQNNRFRNRQGALTVYTGTVTQGTDPVKTYYQYTPVSSKAMYDAYWNGKFRDCAFHSGFNEDPFVCEYQGQSSDLPQPPVNAGGGSGGGSGGGSEGGGSEGGGSEGGGSEGGGSGGGSGSGDFDYEKMANANKGAMTENADENALQSDAKGKLDSVATDYGAAIDGFIGDVSGLANGNGATGDFAGSNSQMAQVGDGDNSPLMNNFRQYLPSLPQSVECRPFVFSAGKPYEFSIDCDKINLFRGVFAFLLYVATFMYVFSTFANILRNKES
notes: as for B1
B3: PAX16 (peptide)
peptide: SWTRWGKHTHGGFVNKSPPGKNATSPYTDAQLPSDQGPPAETVESCLAKPHTENSFTNVWKDDKTLDRYANYEGCLWNATGVVVCTGDETQCYGTWVPIGLAIPENEGGGSEGGGSEGGGSEGGGTKPPEYGDTPIPGYTYINPLDGTYPPGTEQNPANPNPSLEESQPLNTFMFQNNRFRNRQGALTVYTGTVTQGTDPVKTYYQYTPVSSKAMYDAYWNGKFRDCAFHSGFNEDPFVCEYQGQSSDLPQPPVNAGGGSGGGSGGGSEGGGSEGGGSEGGGSEGGGSGGGSGSGDFDYEKMANANKGAMTENADENALQSDAKGKLDSVATDYGAAIDGFIGDVSGLANGNGATGDFAGSNSQMAQVGDGDNSPLMNNFRQYLPSLPQSVECRPFVFSAGKPYEFSIDCDKINLFRGVFAFLLYVATFMYVFSTFANILRNKES
notes: as for B1
B4: S21 (peptide)
peptide: SPRSFWPVVSRHESFGISNYLGCGYRTCISGTMTKSSPIYPRHSAETVESCLAKPHTENSFTNVWKDDKTLDRYANYEGCLWNATGVVVCTGDETQCYGTWVPIGLAIPENEGGGSEGGGSEGGGSEGGGTKPPEYGDTPIPGYTYINPLDGTYPPGTEQNPANPNPSLEESQPLNTFMFQNNRFRNRQGALTVYTGTVTQGTDPVKTYYQYTPVSSKAMYDAYWNGKFRDCAFHSGFNEDPFVCEYQGQSSDLPQPPVNAGGGSGGGSGGGSEGGGSEGGGSEGGGSEGGGSGGGSGSGDFDYEKMANANKGAMTENADENALQSDAKGKLDSVATDYGAAIDGFIGDVSGLANGNGATGDFAGSNSQMAQVGDGDNSPLMNNFRQYLPSLPQSVECRPFVFSAGKPYEFSIDCDKINLFRGVFAFLLYVATFMYVFSTFANILRNKES
notes: as for B1
B5: S22 (peptide)
peptide: SSSSDWGGVPGKVVRERFKGRGCGISITSVLTGKPNPCPEPKAAAETVESCLAKPHTENSFTNVWKDDKTLDRYANYEGCLWNATGVVVCTGDETQCYGTWVPIGLAIPENEGGGSEGGGSEGGGSEGGGTKPPEYGDTPIPGYTYINPLDGTYPPGTEQNPANPNPSLEESQPLNTFMFQNNRFRNRQGALTVYTGTVTQGTDPVKTYYQYTPVSSKAMYDAYWNGKFRDCAFHSGFNEDPFVCEYQGQSSDLPQPPVNAGGGSGGGSGGGSEGGGSEGGGSEGGGSEGGGSGGGSGSGDFDYEKMANANKGAMTENADENALQSDAKGKLDSVATDYGAAIDGFIGDVSGLANGNGATGDFAGSNSQMAQVGDGDNSPLMNNFRQYLPSLPQSVECRPFVFSAGKPYEFSIDCDKINLFRGVFAFLLYVATFMYVFSTFANILRNKES
notes: as for B1
B6: S15 (peptide)
peptide: RSGAYESPDGRGGRSYVGGGGGCGNIGRKHNLWGLRTASPACWDAETVESCLAKPHTENSFTNVWKDDKTLDRYANYEGCLWNATGVVVCTGDETQCYGTWVPIGLAIPENEGGGSEGGGSEGGGSEGGGTKPPEYGDTPIPGYTYINPLDGTYPPGTEQNPANPNPSLEESQPLNTFMFQNNRFRNRQGALTVYTGTVTQGTDPVKTYYQYTPVSSKAMYDAYWNGKFRDCAFHSGFNEDPFVCEYQGQSSDLPQPPVNAGGGSGGGSGGGSEGGGSEGGGSEGGGSEGGGSGGGSGSGDFDYEKMANANKGAMTENADENALQSDAKGKLDSVATDYGAAIDGFIGDVSGLANGNGATGDFAGSNSQMAQVGDGDNSPLMNNFRQYLPSLPQSVECRPFVFSAGKPYEFSIDCDKINLFRGVFAFLLYVATFMYVFSTFANILRNKES
notes: as for B1
B7: DAB7 (peptide)
peptide: RWCGADDPCGASRWRGGNSLFGCGLRCSAAQSTPSGRIHSTSTSAETVESCLAKPHTENSFTNVWKDDKTLDRYANYEGCLWNATGVVVCTGDETQCYGTWVPIGLAIPENEGGGSEGGGSEGGGSEGGGTKPPEYGDTPIPGYTYINPLDGTYPPGTEQNPANPNPSLEESQPLNTFMFQNNRFRNRQGALTVYTGTVTQGTDPVKTYYQYTPVSSKAMYDAYWNGKFRDCAFHSGFNEDPFVCEYQGQSSDLPQPPVNAGGGSGGGSGGGSEGGGSEGGGSEGGGSEGGGSGGGSGSGDFDYEKMANANKGAMTENADENALQSDAKGKLDSVATDYGAAIDGFIGDVSGLANGNGATGDFAGSNSQMAQVGDGDNSPLMNNFRQYLPSLPQSVECRPFVFSAGKPYEFSIDCDKINLFRGVFAFLLYVATFMYVFSTFANILRNKES
notes: as for B1
B8: DAB24 (peptide)
peptide: SKWSWSSRWGSPQDKVEKTRAGCGGSPSSTNCHPYTFAPPPQAGAETVESCLAKPHTENSFTNVWKDDKTLDRYANYEGCLWNATGVVVCTGDETQCYGTWVPIGLAIPENEGGGSEGGGSEGGGSEGGGTKPPEYGDTPIPGYTYINPLDGTYPPGTEQNPANPNPSLEESQPLNTFMFQNNRFRNRQGALTVYTGTVTQGTDPVKTYYQYTPVSSKAMYDAYWNGKFRDCAFHSGFNEDPFVCEYQGQSSDLPQPPVNAGGGSGGGSGGGSEGGGSEGGGSEGGGSEGGGSGGGSGSGDFDYEKMANANKGAMTENADENALQSDAKGKLDSVATDYGAAIDGFIGDVSGLANGNGATGDFAGSNSQMAQVGDGDNSPLMNNFRQYLPSLPQSVECRPFVFSAGKPYEFSIDCDKINLFRGVFAFLLYVATFMYVFSTFANILRNKES
notes: as for B1
B9: DAB3 (peptide)
peptide: RWCGAELCNSVTKKFRPGWRDHANPSTHHRTPPPSQSSPAETVESCLAKPHTENSFTNVWKDDKTLDRYANYEGCLWNATGVVVCTGDETQCYGTWVPIGLAIPENEGGGSEGGGSEGGGSEGGGTKPPEYGDTPIPGYTYINPLDGTYPPGTEQNPANPNPSLEESQPLNTFMFQNNRFRNRQGALTVYTGTVTQGTDPVKTYYQYTPVSSKAMYDAYWNGKFRDCAFHSGFNEDPFVCEYQGQSSDLPQPPVNAGGGSGGGSGGGSEGGGSEGGGSEGGGSEGGGSGGGSGSGDFDYEKMANANKGAMTENADENALQSDAKGKLDSVATDYGAAIDGFIGDVSGLANGNGATGDFAGSNSQMAQVGDGDNSPLMNNFRQYLPSLPQSVECRPFVFSAGKPYEFSIDCDKINLFRGVFAFLLYVATFMYVFSTFANILRNKES
notes: as for B1
B10: DAB18 (peptide)
peptide: RSSANNCEWKSDWMRRACIARYANSSGPARAVDTKAAPAETVESCLAKPHTENSFTNVWKDDKTLDRYANYEGCLWNATGVVVCTGDETQCYGTWVPIGLAIPENEGGGSEGGGSEGGGSEGGGTKPPEYGDTPIPGYTYINPLDGTYPPGTEQNPANPNPSLEESQPLNTFMFQNNRFRNRQGALTVYTGTVTQGTDPVKTYYQYTPVSSKAMYDAYWNGKFRDCAFHSGFNEDPFVCEYQGQSSDLPQPPVNAGGGSGGGSGGGSEGGGSEGGGSEGGGSEGGGSGGGSGSGDFDYEKMANANKGAMTENADENALQSDAKGKLDSVATDYGAAIDGFIGDVSGLANGNGATGDFAGSNSQMAQVGDGDNSPLMNNFRQYLPSLPQSVECRPFVFSAGKPYEFSIDCDKINLFRGVFAFLLYVATFMYVFSTFANILRNKES
notes: as for B1

target: T1, hPEPT1 receptor domain (human PEPT1, …); assay: phage ELISA, plate coated with hPEPT1 domain
Method: (§1) 6.6. Receptor ELISA Procedure 96 well plates were coated overnight with GIT receptor, BSA and, optionally, IDE (insulin degrading enzyme, an irrelevant His-fusion protein)or hTF. The plates were blocked for one hour with 0.5% BSA-PBS. After clarification, the amplified phage were diluted 1:100 in […] plus 0.05% Tween 20 in PBS and added to the plates. Following incubation of the plates on a rotator for 1 to 2 hours, the plates were washed 5 times with 1% BSA plus 0.05% Tween 20 in PBS. […] After the plates were washed 5 times, as described above, TMB substrate was added to the wells. The plates were read at 650 nm absorbance.

Row | Binder | OD
1 | B1 | 0.301 OD
2 | B2 | 1.1 OD
3 | B3 | 0.648 OD

target: T3, hSI receptor domain (human sucrase-isomaltase complex, amino acid residues 272-667), His-tag fusion protein (human, UniProt P14410 272-667); assay: phage ELISA, plate coated with hSI domain
T3 construct: also called hS1; recombinant hSI; not shown: poly-histidine tag (pET vector) at the NH2-terminal end
Method: as §1

T3 sequence (P14410 272-667, one chain of several): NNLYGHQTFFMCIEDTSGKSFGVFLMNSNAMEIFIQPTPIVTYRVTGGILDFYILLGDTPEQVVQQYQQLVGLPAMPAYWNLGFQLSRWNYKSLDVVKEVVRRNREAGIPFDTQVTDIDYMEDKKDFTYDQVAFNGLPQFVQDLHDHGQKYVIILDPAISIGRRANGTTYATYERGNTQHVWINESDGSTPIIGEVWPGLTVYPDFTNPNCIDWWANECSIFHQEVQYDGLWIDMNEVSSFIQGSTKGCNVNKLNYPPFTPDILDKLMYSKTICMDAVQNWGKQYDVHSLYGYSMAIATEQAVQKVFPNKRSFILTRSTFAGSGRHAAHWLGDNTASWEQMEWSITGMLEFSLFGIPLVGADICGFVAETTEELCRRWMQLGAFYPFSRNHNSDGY

Row | Binder | OD
4 | B4 | 0.845 OD
5 | B5 | 0.399 OD
6 | B6 | 0.478 OD

target: T2, D2H receptor domain (human D2H …); assay: phage ELISA, plate coated with D2H domain
Method: as §1

Row | Binder | OD
7 | B7 | 0.702 OD
8 | B8 | 1.8 OD
9 | B9 | 0.406 OD
10 | B10 | 0.467 OD
